Assays:
[1] = target: 3-deoxy-D-arabino-heptulosonate 7-phosphate synthase from Aeropyrum pernix (Aeropyrum pernix); test: SEC
[2] = target: DAH7PS^Ap (DAHPS^Ap; 3-deoxy-D-arabino-heptulosonate 7-phosphate synthase) (Aeropyrum pernix, UniProt Q9YEJ7); test: initial rates, discontinuous periodate-thiobarbituric acid; assay type: biochemical; settings: read-out: apparent Km; 3 mM PEP (saturating), pH 7.0, 60 °C; enzyme as isolated (Zn)

**Q.** “3-deoxy-D-arabino-heptulosonate 7-phosphate synthase from Aeropyrum pernix (enzyme)” was tested. Which stoichiometry N [1] did it give?
**A.** 2

**Q.** How did the Km [2] turn out when `O=C[C@H](O)[C@H](O)COP(=O)(O)O` [E4P] was run?
**A.** 280 ± 20 µM

Reference: publication PMC3260417 (Bioorganic Chemistry, 2011)
